Laboratory results: PMC9352680, “A comprehensive thermodynamic model for RNA binding by the Saccharomyces cerevisiae Pumilio protein PUF4”
Numbering of substitutions follows the chain as printed. In names and notes the source's numbering stands.

B1: Ib_S1_P5E.1_K5.1_C5.1_H5.1_[A4C]_A5.1_F5.1_[A10C]_T5.1 (ssRNA)
RNA: UCUCUUUGUCUUAUUCUCUCUU
B2: Ib_S1_P5E.1_K5.1_C5.1_H5.1_[A4C]_A5.1_F5.1_[A10T]_T5.1 (ssRNA)
RNA: UCUCUUUGUCUUAUUUUCUCUU
B3: Ib_S1_P5E.1_K5.1_C5.1_H5.1_[A4T]_A5.1_F5.1_[A10G]_T5.1 (ssRNA)
RNA: UCUCUUUGUUUUAUUGUCUCUU
B4: Ib_S1_P5E.1_K5.1_C5.1_H5.1_[A4T]_A5.1_F5.1_[A10C]_T5.1 (ssRNA)
RNA: UCUCUUUGUUUUAUUCUCUCUU
B5: Id_ii_S2_P4E.3_K4.2_C4.2_[C-2A]_[T-1G]_H4.2_A4.1_F4.1_T4.2_[G10A]_[T11A] (ssRNA)
RNA: UUUGAUUAAUAUGAUAUCGUUCUUUCUAGUAUAUAUUAAAUUCUUUCUCGAUAUCAUAUUAAUCUUU
B6: Id_ii_S2_P4E.3_K4.2_C4.2_[T-1C]_H4.2_A4.1_F4.1_T4.2_[G10T] (ssRNA)
RNA: B5 RNA with A28C, G29C, A39U, A40U
B7: Id_ii_S2_P4E.3_K4.2_C4.2_[T-1C]_H4.2_A4.1_F4.1_T4.2_[G10C]_[T11A] (ssRNA)
RNA: B5 RNA with A28C, G29C, A39C
B8: Id_ii_S2_P4E.3_K4.2_C4.2_[T-1A]_H4.2_A4.1_F4.1_T4.2_[G10T] (ssRNA)
RNA: B5 RNA with A28C, G29A, A39U, A40U
B9: Id_ii_S2_P4E.3_K4.2_C4.2_H4.2_A4.1_F4.1_T4.2_[G10T]_[T11C] (ssRNA)
RNA: B5 RNA with A28C, G29U, A39U, A40C
B10: Id_ii_S2_P4E.3_K4.2_C4.2_[C-2A]_[T-1C]_H4.2_A4.1_F4.1_T4.2_[G10T]_[T11G] (ssRNA)
RNA: B5 RNA with G29C, A39U, A40G
B11: Id_ii_S2_P4E.3_K4.2_C4.2_H4.2_A4.1_F4.1_T4.2_[G10C]_[T11A] (ssRNA)
RNA: B5 RNA with A28C, G29U, A39C
B12: Id_ii_S2_P4E.3_K4.2_C4.2_[T-1C]_H4.2_A4.1_F4.1_T4.2_[G10T]_[T11A] (ssRNA)
RNA: B5 RNA with A28C, G29C, A39U
B13: Id_ii_S2_P4E.3_K4.2_C4.2_[T-1A]_H4.2_A4.1_F4.1_T4.2_[G10A]_[T11A] (ssRNA)
RNA: B5 RNA with A28C, G29A
B14: Id_ii_S2_P4E.3_K4.2_C4.2_[C-2A]_[T-1A]_H4.2_A4.1_F4.1_T4.2_[G10A]_[T11G] (ssRNA)
RNA: B5 RNA with G29A, A40G
B15: Id_ii_S2_P4E.3_K4.2_C4.2_[C-2A]_H4.2_A4.1_F4.1_T4.2_[G10A]_[T11C] (ssRNA)
RNA: B5 RNA with G29U, A40C
B16: Id_ii_S2_P4E.3_K4.2_C4.2_[C-2A]_[T-1C]_H4.2_A4.1_F4.1_T4.2_[G10C]_[T11C] (ssRNA)
RNA: B5 RNA with G29C, A39C, A40C
B17: Id_ii_S2_P4E.3_K4.2_C4.2_[T-1A]_H4.2_A4.1_F4.1_T4.2_[G10C]_[T11A] (ssRNA)
RNA: B5 RNA with A28C, G29A, A39C
B18: Id_ii_S2_P4E.3_K4.2_C4.2_[C-2A]_[T-1C]_H4.2_A4.1_F4.1_T4.2_[G10T]_[T11C] (ssRNA)
RNA: B5 RNA with G29C, A39U, A40C
B19: Id_ii_S2_P4E.3_K4.2_C4.2_[T-1A]_H4.2_A4.1_F4.1_T4.2_[G10C] (ssRNA)
RNA: B5 RNA with A28C, G29A, A39C, A40U
B20: Id_ii_S2_P4E.3_K4.2_C4.2_[C-2A]_[T-1A]_H4.2_A4.1_F4.1_T4.2_[G10T] (ssRNA)
RNA: B5 RNA with G29A, A39U, A40U
B21: Id_ii_S2_P4E.3_K4.2_C4.2_[C-2A]_[T-1A]_H4.2_A4.1_F4.1_T4.2_[G10C]_[T11C] (ssRNA)
RNA: B5 RNA with G29A, A39C, A40C
B22: Id_ii_S2_P4E.3_K4.2_C4.2_[C-2A]_H4.2_A4.1_F4.1_T4.2_[G10T]_[T11G] (ssRNA)
RNA: B5 RNA with G29U, A39U, A40G
B23: Id_ii_S2_P4E.3_K4.2_C4.2_H4.2_A4.1_F4.1_T4.2_[G10A] (ssRNA)
RNA: B5 RNA with A28C, G29U, A40U
B24: Id_ii_S2_P4E.3_K4.2_C4.2_[C-2A]_[T-1A]_H4.2_A4.1_F4.1_T4.2_[G10C]_[T11A] (ssRNA)
RNA: B5 RNA with G29A, A39C
B25: Id_ii_S2_P4E.3_K4.2_C4.2_[T-1A]_H4.2_A4.1_F4.1_T4.2_[G10A]_[T11C] (ssRNA)
RNA: B5 RNA with A28C, G29A, A40C
B26: Id_ii_S2_P4E.3_K4.2_C4.2_[C-2A]_H4.2_A4.1_F4.1_T4.2_[G10C]_[T11A] (ssRNA)
RNA: B5 RNA with G29U, A39C
B27: Id_ii_S2_P4E.3_K4.2_C4.2_[C-2A]_[T-1C]_H4.2_A4.1_F4.1_T4.2_[G10T] (ssRNA)
RNA: B5 RNA with G29C, A39U, A40U
B28: Id_ii_S2_P4E.3_K4.2_C4.2_[T-1G]_H4.2_A4.1_F4.1_T4.2_[G10A]_[T11A] (ssRNA)
RNA: B5 RNA with A28C
B29: Id_ii_S2_P4E.3_K4.2_C4.2_[C-2A]_[T-1C]_H4.2_A4.1_F4.1_T4.2_[G10A] (ssRNA)
RNA: B5 RNA with G29C, A40U

What follows are binders tested against T1, PUF4 RNA-binding domain (Saccharomyces cerevisiae, UniProt P25339 537-888) (assay: Mg; RNA-MaP; 20 mM Na-HEPES pH 7.4, 30 mM KOAc, 0.75 mM MgCl2, 0.1% Tween-20, 5% glycerol, 0.1 mg/mL BSA, 2 mM DTT; 25 C; 0.0125-409.6 nM protein). Settings: tags: N-His6-TEV cleaved; C-SNAP kept, Cy3B-labelled; label: tethered on chip by stalled RNA polymerase.
T1 sequence: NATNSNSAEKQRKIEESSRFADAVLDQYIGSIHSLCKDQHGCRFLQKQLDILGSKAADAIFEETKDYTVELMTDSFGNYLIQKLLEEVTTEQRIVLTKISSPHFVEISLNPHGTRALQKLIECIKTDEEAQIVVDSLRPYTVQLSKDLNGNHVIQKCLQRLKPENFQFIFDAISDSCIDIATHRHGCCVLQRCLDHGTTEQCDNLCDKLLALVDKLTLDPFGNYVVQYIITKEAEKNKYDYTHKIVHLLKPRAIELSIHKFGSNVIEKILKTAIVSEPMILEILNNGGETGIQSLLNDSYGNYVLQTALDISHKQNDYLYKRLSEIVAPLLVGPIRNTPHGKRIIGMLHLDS
Binder B1 has a Kd of 1350 nM.
In the case of B2, the Kd is reported as 775 nM.
B3 gave a Kd of 378 nM.
With B4 the Kd was 899 nM.
Work on B5 yielded a Kd of 135 nM.
For B6, the Kd was 3.61 nM.
B7 gave a Kd of 9.95 nM.
B8 showed a Kd of 8.24 nM.
With B9 the Kd was 4.61 nM.
In the case of B10, the Kd is reported as 135 nM.
B11 showed a Kd of 8.35 nM.
With B12 the Kd was 17 nM.
B13 was tested, and the Kd was 37.6 nM.
For B14, the Kd was 661 nM.
B15 showed a Kd of 40.9 nM.
Binder B16 has a Kd of 8.87 nM.
In the case of B17, the Kd is reported as 16.3 nM.
Work on B18 yielded a Kd of 10.6 nM.
In the case of B19, the Kd is reported as 7.44 nM.
B20 gave a Kd of 214 nM.
B21 showed a Kd of 56.4 nM.
B22 was tested, and the Kd was 26.1 nM.
Work on B23 yielded a Kd of 9.82 nM.
In the case of B24, the Kd is reported as 160 nM.
With B25 the Kd was 17.8 nM.
In the case of B26, the Kd is reported as 18.2 nM.
B27 gave a Kd of 7.44 nM.
For B28, the Kd was 20.5 nM.
For B29, the Kd was 14.7 nM.
